Measurements: paper PMC6850650, “Superfolder mTurquoise2^ox optimized for the bacterial periplasm allows high efficiency in vivo FRET of cell division antibiotic targets” (Molecular Microbiology, 2019)
Positions count from the first letter of the chain named. In names and notes the source's numbering stands.

T1: FtsL-mNG (E. coli, UniProt P0AEN4 1-121)
T1 construct: cell division protein FtsL of E. coli; The end of the FP is read from the printed name FtsL-mNG; source: E. coli, from plasmid, in the cells (FP in the periplasm); not shown: mNeongreen, C-terminal, kept
T1 sequence (looked up): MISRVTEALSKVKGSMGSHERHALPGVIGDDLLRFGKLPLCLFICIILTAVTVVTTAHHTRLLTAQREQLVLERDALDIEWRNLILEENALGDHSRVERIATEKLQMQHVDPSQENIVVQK

T2: FtsB-mNG (E. coli, UniProt P0A6S5 1-103)
T2 construct: cell division protein FtsB of E. coli; The end of the FP is read from the printed name; also called wild-type FtsB-mNG; source: E. coli, from plasmid, in the cells (FP in the periplasm); not shown: mNeongreen, C-terminal, kept
T2 sequence (looked up): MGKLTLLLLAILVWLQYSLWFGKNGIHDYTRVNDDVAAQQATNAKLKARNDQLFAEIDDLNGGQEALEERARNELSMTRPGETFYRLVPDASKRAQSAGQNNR

B1: FtsB-sfTq2^ox (natural protein, E. coli, UniProt P0A6S5 1-103, looked up)
chain: T2 sequence (looked up)
notes: cell division protein FtsB of E. coli; The end of the FP is read from the printed name FtsB-sfTq2^ox; source: E. coli, from plasmid, in the cells (FP in the periplasm); not shown: sfTq2^ox, C-terminal, kept
B2: PBP5 (D,D-carboxypeptidase) fused to sfTq2 (donor copy) or mNeongreen (acceptor copy) (enzyme, E. coli, UniProt P0AEB2 30-403, looked up)
chain: DDLNIKTMIPGVPQIDAESYILIDYNSGKVLAEQNADVRRDPASLTKMMTSYVIGQAMKAGKFKETDLVTIGNDAWATGNPVFKGSSLMFLKPGMQVPVSQLIRGINLQSGNDACVAMADFAAGSQDAFVGLMNSYVNALGLKNTHFQTVHGLDADGQYSSARDMALIGQALIRDVPNEYSIYKEKEFTFNGIRQLNRNGLLWDNSLNVDGIKTGHTDKAGYNLVASATEGQMRLISAVMGGRTFKGREAESKKLLTWGFRFFETVNPLKVGKEFASEPVWFGDSDRASLGVDKDVYLTIPRGRMKDLKASYVLNSSELHAPLQKNQVVGTINFQLDGKTIEQRPLVVLQEIPEGNFFGKIIDYIKLMFHHWFG
notes: PBP5 (D,D-carboxypeptidase, encoded by dacA) of E. coli; Self-association measured between two differently fused copies (sfTq2-PBP5 and mNG-PBP5); PBP5's own signal peptide is probably replaced by that of DsbA (surmised); also called sfTq2-PBP5; DsbA^ss-FP-PBP5; source: E. coli CS109 ΔdacA, from plasmid, in the periplasm of the cells; not shown: sfTq2 (on the donor copy), N-terminal, kept; …
B3: PBP5^S44G (inactive mutant) fused to sfTq2 (donor copy) or mNeongreen (acceptor copy) (enzyme, E. coli, UniProt P0AEB2 30-403, looked up)
chain: B2 chain with S44G
notes: PBP5 (D,D-carboxypeptidase, encoded by dacA) of E. coli with S44G; Self-association measured between two differently fused copies; source: E. coli CS109 ΔdacA, from plasmid, in the periplasm of the cells; not shown: sfTq2 (on the donor copy), N-terminal, kept; mNeongreen (on the acceptor copy), N-terminal, kept
B4: FtsL-sfTq2^ox (natural protein, E. coli, UniProt P0AEN4 1-121, looked up)
chain: T1 sequence (looked up)
notes: cell division protein FtsL of E. coli; The end of the FP is read from the printed name; source: E. coli, from plasmid, in the cells (FP in the periplasm); not shown: sfTq2^ox, C-terminal, kept

What was measured:
Assay in all cases: FRET or BRET; in vivo in the periplasm of E. coli; donor sfTq2 or sfTq2^ox, acceptor mNG, each fused to one partner; emission spectra taken with a fluorometer and unmixed, EfA from sensitised emission; PBP5 dimerisation in CS109 ΔdacA, controls in LMC500 and CS109 ΔdacA
FtsL-mNG = target: T1, FtsL-mNG; conditions: partners not purified
[1] = target: the molecule itself
FtsB-mNG = target: T2, FtsB-mNG; conditions: partners not purified

Row | Binder | EfA (FRET efficiency) [1] | further results
1 | B1 |  | EfA (FRET efficiency) (FtsL-mNG): 19.2%
2 | B2 | 4.2% | 
3 | B3 | 8.8% | 
4 | B4 |  | EfA (FRET efficiency) (FtsB-mNG): 15.6%
